How the values were obtained:
HLA-B*15:01 = assay: IEDB peptide-MHC binding, purified MHC/competitive/fluorescence; filed as Kd, often an IC50 or EC50 that approximates it; ≥ and ≤ were set here for values at or beyond the usual limits of such assays
HLA-A*02:01 [1] = assay: as above; details: source organism: Vibrio vulnificus CMCP6
HLA-A*02:06 = assay: as above; details: source organism: Vibrio vulnificus CMCP6
HLA-A*02:03 = assay: as above; details: source organism: Vibrio vulnificus CMCP6
HLA-B*15:17 = assay: as above; details: source organism: Vibrio vulnificus CMCP6
HLA-A*11:01 = assay: as above; details: source organism: Vibrio vulnificus CMCP6
HLA-B*57:01 = assay: as above; details: source organism: Vibrio vulnificus CMCP6
HLA-B*15:09 = assay: IEDB peptide-MHC binding, purified MHC/direct/fluorescence; filed as Kd, often an IC50 or EC50 that approximates it; ≥ and ≤ were set here for values at or beyond the usual limits of such assays; details: source organism: Vibrio vulnificus CMCP6
HLA-B*08:02 = assay: as above; details: source organism: Vibrio vulnificus CMCP6
HLA-A*31:01 = assay: as above; details: source organism: Vibrio vulnificus
HLA-A*26:03 = assay: as above; details: source organism: Vibrio vulnificus CMCP6
HLA-B*40:01 = assay: as above; details: source organism: Vibrio vulnificus
HLA-B*38:01 = assay: as above; details: source organism: Vibrio vulnificus CMCP6
HLA-B*08:01 = assay: as above; details: source organism: Vibrio vulnificus CMCP6
HLA-B*48:01 = assay: as above; details: source organism: Vibrio vulnificus
HLA-C*12:03 = assay: as above
HLA-A*26:02 = assay: as above; details: source organism: Vibrio vulnificus CMCP6
HLA-B*46:01 = assay: as above; details: source organism: Vibrio vulnificus
HLA-A*01:01 = assay: as above; details: source organism: Vibrio vulnificus
HLA-B*58:01 = assay: as above; details: source organism: Vibrio vulnificus CMCP6
HLA-A*69:01 = assay: as above; details: source organism: Vibrio vulnificus
HLA-B*27:05 = assay: as above; details: source organism: Vibrio vulnificus
HLA-A*02:01 [2] = assay: IEDB peptide-MHC binding, cellular MHC/competitive/fluorescence; ≥ and ≤ were set here for values at or beyond the usual limits of such assays; details: source organism: Homo sapiens
HLA-B*15:42 = assay: IEDB peptide-MHC binding, purified MHC/competitive/fluorescence; filed as Kd, often an IC50 or EC50 that approximates it; ≥ and ≤ were set here for values at or beyond the usual limits of such assays; details: source organism: Gorilla gorilla
HLA-B*45:06 = assay: as above; details: source organism: Gorilla gorilla
HLA-C*14:02 = assay: as above; details: source organism: Gorilla gorilla
HLA-B*83:01 = assay: as above; details: source organism: Gorilla gorilla
HLA-B*35:01 = assay: as above
[3] = source organism: Vibrio vulnificus CMCP6
[4] = source organism: Bacillus anthracis str. A0488
[5] = source organism: Desulfitobacterium hafniense DCB-2

## VTFFCVMTY
HLA-B*15:01; [3]
  Kd: 2.23 µM
HLA-A*02:01 [1]
  Kd: 2.1 µM
HLA-A*02:06
  Kd: 0.478 µM
HLA-A*02:03
  Kd: ≥ 20 µM
HLA-B*15:17
  Kd: 0.0151 µM
HLA-A*11:01
  Kd: 0.225 µM
HLA-B*57:01
  Kd: 1.75 µM
HLA-B*15:09
  Kd: ≥ 20 µM
HLA-B*08:02
  Kd: ≥ 20 µM
HLA-A*31:01
  Kd: ≥ 20 µM
HLA-A*26:03
  Kd: ≥ 20 µM
HLA-B*40:01
  Kd: ≥ 20 µM
HLA-B*38:01
  Kd: ≥ 20 µM
HLA-B*08:01
  Kd: ≥ 20 µM
HLA-B*48:01
  Kd: ≥ 20 µM
HLA-C*12:03; [3]
  Kd: 0.043 µM
HLA-A*26:02
  Kd: 1.78 µM
HLA-B*46:01
  Kd: ≥ 20 µM
HLA-A*01:01
  Kd: 0.993 µM
HLA-B*58:01
  Kd: 0.111 µM
HLA-A*69:01
  Kd: ≥ 20 µM
HLA-B*27:05
  Kd: ≥ 20 µM

## SLSEKTVLL
HLA-A*02:01 [2]
  IC50: 21 µM

## VMAPRTLVL
HLA-B*15:42
  Kd: ≥ 5 µM
HLA-B*45:06
  Kd: ≥ 5 µM
HLA-C*14:02
  Kd: 0.0772 µM
HLA-B*83:01
  Kd: ≥ 5 µM
HLA-C*12:03; source organism: Gorilla gorilla
  Kd: 2.28 µM
HLA-A*02:01 [2]
  IC50: 10.5 µM

## WCMQHLPSY
HLA-B*15:01; [4]
  Kd: 0.102 µM
HLA-B*35:01; [4]
  Kd: 0.004 µM

## FAGDLYRMY
HLA-B*15:01; [5]
  Kd: 0.806 µM
HLA-B*35:01; [5]
  Kd: 0.0071 µM

From the Immune Epitope Database (IEDB)
